Experimental findings from patent US20230121197A1, “ANTIBODIES SPECIFICALLY BINDING THE CARBOXYMETHYLATED CATALYTIC SUBUNIT OF PROTEIN PHOSPHATASE 2A” (Medizinische Universität Wien, priority 2020, published 2023) are described below.

In test [1] the target is T1, PP6c C-terminal peptide meL305, ac-IPPRTTTPYFL-CH3 (α-carboxymethylated) (human, SMILES …).
T1 construct: also called PP6 meLeu305
T1 peptide: Ac-IPPRTTTPYFL-OMe
Description: ELISA, peptide coated at 2 µg/ml, hybridoma supernatant 1:50, values normalized to meL309, N=7. An excerpt:
(§1) FIG. 9: Monoclonal antibody 7C10-C5 detects α-carboxymethylated PP2Ac C-terminal peptides with >10-fold higher signal intensity than the α-carboxymethylated PP4c and PP6c C-terminal peptides in ELISA. Nunc Medisorp 96-well ELISA flat-bottom plates were coated with PP2Ac peptides L309 (ac-[…]) (SEQ ID NO:18), meL309 (ac-[…]-CH3) (SEQ ID NO:18), PP4c peptides L307 (ac-[…]) (SEQ ID NO:20), meL307 (ac-[…]-CH₃) (SEQ ID NO:20), PP6c peptides L305 (ac-[…]) (SEQ ID NO:22) or meL305 (ac-[…]-CH₃) (SEQ ID NO:22) at 2 μg/ml in TBS or TBS only (Neg) at 4° C. over-night. After washing once with TBS, the wells were incubated with 2% BSA in TBS for 1 h at RT. After washing once with TBS, the wells were incubated with single clone hybridoma cell culture supernatant, clone 7C10-C5 1:50 for 1 h at RT. After washing twice with TBS, wells were incubated with anti-mouse and anti rabbit HRP-coupled secondary antibody for 1 h at RT, followed by washing 3× in PBS. Bound antibodies were detected by colorimetric reaction with 3,3′,5,5′-Tetramethylbenzidine as substrate, and absorbance was measured at 450 nm. Values were normalized to meL309 which was set to 1. Average and standard deviation of N=7 experiments are shown. […] Statistical significance was assessed using ANOVA followed by Tukey's HSD as a post-hoc test. […]
In general terms: In an ELISA, binding on a coated surface is turned into a signal by an enzyme label.

Test [2] concerns the target T2, PP4c C-terminal peptide meL307, ac-PSKKPVADYFL-CH3 (α-carboxymethylated) (human, SMILES …).
T2 construct: also called mePP4c; PP4 Me
T2 peptide: Ac-PSKKPVADYFL-OMe
The description is as above.
Description: as §1

Test [3] deals with T3, non-carboxymethylated PP2Ac (ac-[…]-OH) (Homo sapiens, UniProt P67775).
T3 construct: The following 11-mer peptides corresponding to the carboxymethylated or non-methylated carboxy-terminus of PP2A and PP4 catalytic subunits were used as antigens
Description: Surface plasmon resonance (Biacore T200), non-carboxymethylated PP2Ac peptide. Particulars: SPR. The test is classed as binding. As to the method: (§2) The differential affinity of anti-carboxymethylated PP2Ac antibodies, 7C10-C5 and 2A10, to carboxymethylated PP2A catalytic subunit versus noncarboxymethylated PP2A catalytic subunit was determined by surface plasmon resonance (SPR) on a Biacore T200 (GE Healthcare) at the Core Facility Biomolecular & Cellular Analysis (University of Natural Resources and Life Sciences Vienna BOKU). The affinity of 7C10-C5 for carboxymethylated and noncarboxymethylated catalytic subunit of PP4 (PP4c), a PP2A-related phosphatase, was also determined. […] The KD of the binding of 7C10-C5 (or 2A10) to non-carboxymethylated PP2Ac or PP4c could not be determined because at the highest analyte sample concentration (5000 nM) only very weak binding signals were detected indicating KD values of at least >5000 nM or higher. […]
(§3) SPR experiments were performed with the BiacoreT200 instrument (Cytiva). […] The sensorgrams obtained were analyzed with BiacoreT200 Evaluation Software (version 3.1). […]
In general terms: Surface plasmon resonance follows binding to a sensor surface in real time, without labels.

The target in test [4] is T4, carboxymethylated PP4c C-terminal peptide (ac-[…]-CH3) (Homo sapiens, UniProt P60510).
T4 construct: The following 11-mer peptides corresponding to the carboxymethylated or non-methylated carboxy-terminus of PP2A and PP4 catalytic subunits were used as antigens
Description: Surface plasmon resonance (Biacore T200), steady state analysis, carboxymethylated PP4c peptide. The test is classed as binding. Particulars: PP4 Me peptide, 360 sec contact time, 40 μL/min. Here is the method: as §2, §3

B1: 7C10-C5 monoclonal antibody (antibody, V domains shown)
VH: DVQLQESGPGLVKPSQSLSLTCSVTGYSITSGYYWNWIRQFPGNKLEWMGYISYDGSNNYNPSLKNRISITRDTSKNQFFLKLNSVTTEDTATYYCAGRFAYWGQGTLVTVSA
VL: DVLMTQTPLSLPVSLGDQASISCRSSQSIVHSNGNTYLEWYLQKPGQSPKLLIYKVSNRFSGVPDRFSGSGSGTDFTLKINRVEAEDLGVYYCFQGSHVPWTFGGGTKLEIK
notes: Used as hybridoma culture supernatant (ELISA, Western blot, IHC) or at 50 µg/mL (SPR); also called 7C10 X63; clone 7C10-C5
With B1, the “fold-change of ELISA signal, meL309 (PP2A) over meL305 (PP6)” value in test [1] was determined as 16.2 fold. In test [2], the “fold-change of ELISA signal, meL309 (PP2A) over meL307 (PP4)” value came out at 10.1 fold.

B2: 7C10-C5: α-carboxymethylation specific mouse monoclonal IgG1 antibody from single clone hybridoma 7C10-C5 (DSM ACC3350) (antibody)
heavy: MYRMQLLSCIALSLALVTNSDVQLQESGPGLVKPSQSLSLTCSVTGYSITSGYYWNWIRQFPGNKLEWMGYISYDGSNNYNPSLKNRISITRDTSKNQFFLKLNSVTTEDTATYYCAGRFAYWGQGTLVTVSAAKTTAPSVYPLAPVCGDTTGSSVTLGCLVKGYFPEPVTLTWNSGSLSSGVHTFPAVLQSDLYTLSSSVTVTSSTWPSQSITCNVAHPASSTKVDKKIEPRGPTIKPCPPCKCPAPNLLGGPSVFIFPPKIKDVLMISLSPIVTCVVVDVSEDDPDVQISWFVNNVEVHTAQTQTHREDYNSTLRVVSALPIQHQDWMSGKEFKCKVNNKDLPAPIERTISKPKGSVRAPQVYVLPPPEEEMTKKQVTLTCMVTDFMPEDIYVEWTNNGKTELNYKNTEPVLDSDGSYFMYSKLRVEKKNWVERNSYSCSVVHEGLHNHHTTKSFSRTPGK
light: MDMRVPAQLLGLLLLWLSGARCDVLMTQTPLSLPVSLGDQASISCRSSQSIVHSNGNTYLEWYLQKPGQSPKLLIYKVSNRFSGVPDRFSGSGSGTDFTLKINRVEAEDLGVYYCFQGSHVPWTFGGGTKLEIKADAAPTVSIFPPSSEQLTSGGASVVCFLNNFYPKDINVKWKIDGSERQNGVLNSWTDQDSKDSTYSMSSTLTLTKDEYERHNSYTCEATHKTSTSPIVKSFNRNEC
modifications: Amino acid sequence of the recombinant 7C10-C5 heavy chain; Amino acid sequence of the recombinant 7C10-C5 light chain
For B2, in test [3], the “binding to carboxymethylated PP2Ac stronger than to non-carboxymethylated PP2Ac” value is reported as “at least 400 fold” and the “binding to non-carboxymethylated PP2Ac” value is “does not bind to non-carboxymethylated PP2Ac to a measureable extent”. The Rmax in test [4] worked out at 20.17 RU.
